Data on 7 molecules can be found in patent US20160340442A1 (Dana-Farber, published 2016).

The target in assay [1] is T1, cell surface MUC1-C protein (human, UniProt P15941 1098-1255).
T1 sequence: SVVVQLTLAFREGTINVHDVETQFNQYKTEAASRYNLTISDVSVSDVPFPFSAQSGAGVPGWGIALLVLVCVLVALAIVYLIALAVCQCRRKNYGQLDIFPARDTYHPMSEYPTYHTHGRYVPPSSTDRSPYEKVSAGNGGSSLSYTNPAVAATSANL
Kind of assay: cell-based or functional assay.

The next assay concerns the target T2, MUC1-CQC→AQA mutant (human, UniProt P15941 1098-1255).
T2 construct: also called HCT116/MUC1-CQC→AQA mutant cells
T2 chain: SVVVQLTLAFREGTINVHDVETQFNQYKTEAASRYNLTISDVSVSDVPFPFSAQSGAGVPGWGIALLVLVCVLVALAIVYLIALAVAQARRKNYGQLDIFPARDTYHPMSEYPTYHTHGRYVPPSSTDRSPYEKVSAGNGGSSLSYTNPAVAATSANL
The assay is described as follows: flow cytometry, HCT116/MUC1-CQC→AQA mutant cells. As for the experimental part:
FIG. 37. HCT116/MUC1-wild-type and HCT116/MUC1-CQC→AQA mutant cells 7B8 for 30 min, washed, incubated with goat anti-mouse immunoglobulin-flourescein-conjugated antibody (Santa Cruz Biotechnology), and fixed in 1% formaldehyde/PBS. Reactivity was detected by immunofluorescence FACScan.

Assay [2] addresses T1, cell surface MUC1-C protein. Kind of assay: flow cytometry, ZR-75-1 cells, competitive format with purified MUC1-C/ECD protein; 7B8 binding not abrogated. As for the experimental part: Characterized of 7B8 and 3D1 antibodies. Linear epitope mapping of 7B8 and 3D1 clones was performed using three overlapping peptides spanning the entire MUC1-C/ECD region (58 amino acids) were synthesized. ELISA assays were performed using 7B8 or 3D1 purified antibodies in the presence or absence of P1, P2 or P3 peptides. […] Conformational epitope mapping of 7B8 and 3D1 was performed using eight critical individual point mutants in the MUC1-C/ECD region by ELISA. […] These findings indicate that D19 is a part of the conformational core/pocket for 3D1 binding. ZR-75-1 breast carcinoma cells were used determine 7B8 or 3D1 antibody binding in a competitive format with MUC1-C/ECD and analyzed by FLOW. […] These findings indicate that the conformational binding epitopes of 7B8 and 3D1 are different. The sequencing results for hybridoma 3D1 is shown in FIG. 50 and is discussed in greater detail below.
On the technique in general: A flow cytometer gives signals particle by particle.

Assay [3] has as its target T3, MUC1-C/ECD protein (human, UniProt P15941 1098-1155).
T3 construct: also called MUC1-C/ECD antigen; the antigen
T3 sequence: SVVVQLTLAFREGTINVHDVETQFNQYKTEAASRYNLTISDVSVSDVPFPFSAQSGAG
The assay is described as follows: ELISA, plates coated with the MUC1-C/ECD antigen. In general terms: ELISA stands for enzyme-linked immunosorbent assay.

A further assay concerns the target T4, P3 (human).
T4 construct: Synthetic overlapping peptide of MUC1-C/ECD; also called peptide P3
T4 peptide: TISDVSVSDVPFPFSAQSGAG
The assay is described as follows: ELISA, peptide as competitor (indirect: peptide did not inhibit binding to the antigen).

The target of another assay is T5, P1 (human).
T5 construct: Synthetic overlapping peptide of MUC1-C/ECD; also called peptide P1
T5 peptide: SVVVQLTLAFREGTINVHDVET
The assay is described as above.

The next assay has as its target T6, P2 (human).
T6 construct: Synthetic overlapping peptide of MUC1-C/ECD; also called peptide P2
T6 peptide: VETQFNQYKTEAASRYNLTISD
The assay is described as above.

The target in assay [4] is T1, cell surface MUC1-C protein. The assay is described as follows: flow cytometry, ZR-75-1, MCF-7 and HCT-116/MUC1 cells. An excerpt: FIG. 35. […] Reactivity was detected by immunofluorescence FACScan.
FIG. 36. […] Reactivity was detected by immunofluorescence FACScan.

The target in assay [5] is T3, MUC1-C/ECD protein. Kind of assay: ELISA, plates coated with the antigen, multiple antibody concentrations. As for the experimental part:
FIG. 38. ELISA assays were performed by coating plates with the antigen and reactivity with multiple different concentrations of purified antibodies 7B8, 4G5 and 2B11.

In assay [6] the target is T1, cell surface MUC1-C protein. Kind of assay: surface staining, flow cytometry, KU812 CML cells; 2 µg antibody/sample.
Assay [7] has the same target. Kind of assay: surface staining, flow cytometry, K562 MUC1-siRNA cells (MUC1 silenced); 2 µg antibody/sample.
Assay [8] shares this target. The assay is described as follows: surface staining, flow cytometry, K562 CTL-siRNA cells; 2 µg antibody/sample; fixed samples kept at 4° C. for 4 days.
The target is the same in assay [9]. Kind of assay: surface staining, flow cytometry, K562 CML cells; 2 µg antibody/sample.
Assay [10] shares this target. The assay is described as follows: surface staining, flow cytometry, ZR-75-1 cells (third row); 2 µg antibody/sample.

B1: 7B8-MMAF (other)
VH: QVQLQQPGAELVKPGASEKLSCKASGHTFTSYWMHWVKQRPGQGLEWIGEINPSNGRTYYNENFKTKATLTVDKYSSSASMQLRSLTSEDSAVYYCASDGDYVSGFAYWGQGTTLTVSS
VL: DIVLTQSPGSLAVSLGQSVTISCRASESVQYSGTSLMHWYQQKPGQPPKLLIYGASNVETGVPARFSGSGSGTDFSLNIHPVEEDDIAMYFCQQNWKVPWTFGGGTKLEIK
modifications: monomethyl auristatin F (MMAF) via cleavable linker valine-citrulline-p-aminobenzyl (Val-Cit-PAB); attachment residues not stated
As for B1, the “dose-dependent inhibition of proliferation in ZR-75-1 breast carcinoma cells, IC50” value in assay [1] is roughly 860 pM.

B2: 400.6.7B8.G3.G1 (antibody, IgG2a, V domains shown)
VH: QVQLQQPGAELVKPGASEKLSCKASGHTFTSYWMHWVKQRPGQGLEWIGEINPSNGRTYYNENFKTKATLTVDKYSSSASMQLRSLTSEDSAVYYCASDGDYVSGFAYWGQGTTLTVSS
VL: DIVLTQSPGSLAVSLGQSVTISCRASESVQYSGTSLMHWYQQKPGQPPKLLIYGASNVETGVPARFSGSGSGTDFSLNIHPVEEDDIAMYFCQQNWKVPWTFGGGTKLEIK
Regarding B2, the binding result in the assay with MUC1-CQC→AQA mutant is on record as “binds”; in assay [2], “binds”; with MUC1-C/ECD protein [3] it was “binds”; with P3, “no binding”; with P1, “no binding”; in the assay with P2, “no binding”.

B3: 400.6.2B11.D5.F6 (antibody, IgG1, V domains shown)
VH: QVQLQQSGAELMKPGASVKISCKAIGFTFNYFWIEWVKQRPGHGLEWIGEILPGTGSTNYNEKFKGKAIFTADTSSNTAYMQLRSLTSEDSAVYYCVRYDYTSSMDYWGQGTSVTVSS
VL: NIVMTQSPKSMSMSVGERVTLTCKASENVGTYVSWYQQKPEQSPKLLIYGASNRYTGVPNRFTGSGSATDFTLTISSVQAEDLADYYCGQSYSYPWTFGGGTKLEIK
As for B3, the binding result in assay [4] was “binds”; with P3, “no binding”; in the assay with P1, “no binding”; in the assay with P2, “no binding”; in the assay with MUC1-C/ECD protein [5], “binds”.

B4: 400.6.4G5.E11.G2 (antibody, IgG1, V domains shown)
VH: QITLKESGPGILQPSQTLSLTCSFSGFSLSTSGMGVSWIRQPSGKGLEWLSHIYWDDDKRYNPSLKSRLSISKDTSRNQVFLKITSVDTADTATYYCAPGVSSWFPYWGPGTLVTVSA
VL: SIVMTQTPKFLPVSAGDRVTVTCKASQSVGNYVAWYQQKPGQSPKLLIYFASNRYSGVPDRFTGSGSGTDFTFTISSVQVEDLAVYFCQQHYIFPYTFGSGTKLEIK
For B4, the binding result in assay [4] is recorded as “binds”; with P3, “no binding”; in the assay with P1 it was “no binding”; with P2, “no binding”; with MUC1-C/ECD protein [5] it was “binds”.

B5: 315.1.6A6.C11.G5 (antibody, V domains shown)
VH: QVQLKESGPGLVAPSQSLSMTCTVSGFSLTTYGVHWVRQPPGKGLEWLVVIWSDGSTTYNSPLKSRLSISRDNSKSQVFLKMNSLQADDTAIYYCAKNYLGSLDYWGQGTSVTVSS
VL: DVVLTQTPLSLPVSLGDQASISCRSSQSLVHNNGDTYLHWYLQKPGQSPKLLIYKVSNRFSGVPDRFSGSGSGTDFTFKISRVEAEDLGVYFCSQTTHVPLTFGAGTKLELK
notes: also called MAb 6A6; Clone 6A6
Regarding B5, the “flow cytometry value (unit not given)” value is 31.6 in assay [6]; 6.26 in [7]; 22.6 in assay [8]; 9.31 in [9]; 2.16 in [10].

B6: 315.2.8F1.D2.D1 (antibody, V domains shown)
VH: EVQLVESGGGLVQPGESLKLSCESNEYEFPSHDMSWVRKTPEKRLELVAAINSDGGSTYYPDTMERRFIISRDNTKKTLYLQMSSLRSEDTALYYCVRLYYGNVMDYWGQGTSVTVSS
VL: DVVMTQTPLSLPVSLGDQASISCRSSQSLVHSNGNTYLYWYLQKPGQSPKLLIYKVSNRFSGVPDRFSGSGSGTDFTLKISRVEAEDLGVYFCSQSTHVPLTFGAGTKLELK
notes: also called Clone 8F1; P58-8F1
As for B6, the “flow cytometry value (unit not given)” value amounted to 39.9 in assay [6]; 6.37 in assay [7]; 34.4 in assay [8]; 9.58 in assay [9]; 1.57 in assay [10].

B7: 315.2.8E1.F7.C3.H7.H8.F5 (antibody, V domains shown)
VH: EVQLVESGGGLVQPGESLKLSCESNEYEFPSHDMSWVRKTPEKRLELVAAINSDGGSTYYPDTMERRFIISRDNTKKTLYLQMSSLRSEDTALYYCVRLYYGNVMDYWGQGTSVTVSS
VL: DVVMTQTPLSLPVSLGDQASISCRSSQSLVHSNGNTYLYWYLQKPGQSPKLLIYKVSNRFSGVPDRFSGSGSGTDFTLKISRVEAEDLGVYFCSQSTHVPLTFGAGTKLELK
notes: also called MAb 8E1; Clone 8E1
For the molecule B7, the “flow cytometry value (unit not given)” value in [6] was found to be 39.6; in assay [7], 6.91; in assay [8], 22.4; in assay [9] it was 8.65; in [10] it was 1.61.
